Laboratory results published in patent publication US20230250134A1 (University of Washington, published 2023).
Numbering of substitutions follows the chain as printed. Where no end group is shown, it is not given here.

B1: LCB2-1 (designed binder)
chain: SDDEDSVRYLLYMAELRYEQGNPEKAKKILEMAEFIAKRNNNEELERLVREVKKRL
B2: LCB2-2 (designed binder)
chain: B1 chain with S6A, R17L, E19K, K25E, I29L, M32L
B3: LCB8-1 (designed binder)
chain: PIIELLREAKEKNDEFAISDALYLVNELLQRTGDPRLEEVLYLIWRALKEKDPRLLDRAIELFER
B4: LCB8-2 (designed binder)
chain: B3 chain with I2V, I3T, E15P, F16M, Y23F, N26F, L29A, Y42F
B5: LCB3_v1.2 (designed binder)
chain: NDDELHMQMTDLVYEALHFAKDEEIQKHVFQLFEKATKAYKNKDRQKLEKVVEELKELLERLLS
notes: also called LCB3-3
B6: LCB3_v1.3 (designed binder)
chain: B5 chain with I25F
B7: LCB3-4 (designed binder)
chain: B5 chain with K35N
B8: LCB3_v1.5 (designed binder)
chain: B5 chain with F19K, I25M, H28R, K35Q, T37D, N42T
B9: LCB3_v1.1 (designed binder)
chain: B5 chain with I25F, K43N
B10: LCB3_v1.4 (designed binder)
chain: B5 chain with F19K, I25F, Y40R
B11: 36175 (5_LCB1_linker14) (designed binder)
chain: DKEWILQKIYEIMRLLDELGHAEASMRVSDLIYEFMKKGDERLLEEAERLLEEVERGGSGSSGGSGSGSGDKEWILQKIYEIMRLLDELGHAEASMRVSDLIYEFMKKGDERLLEEAERLLEEVERGGSGSSGGSGSGSGDKEWILQKIYEIMRLLDELGHAEASMRVSDLIYEFMKKGDERLLEEAERLLEEVERGGSGSSGGSGSGSGDKEWILQKIYEIMRLLDELGHAEASMRVSDLIYEFMKKGDERLLEEAERLLEEVERGGSGSSGGSGSGSGDKEWILQKIYEIMRLLDELGHAEASMRVSDLIYEFMKKGDERLLEEAERLLEEVER
B12: LCB1-4 (designed binder)
chain: DKENILQKIYEIMKTLDQLGHAEASMQVSDLIYEFMKQGDERLLEEAERLLEEVER
notes: also called LCB1_v1.1
B13: LCB1_v1.2 (designed binder)
chain: B12 chain with Q27Y
B14: LCB1_v1.4 (designed binder)
chain: B12 chain with D17E, R42N, R49Q, E52Q
B15: LCB1-5 (designed binder)
chain: B12 chain with Q27N
B16: LCB1_v1.5 (LCB1_v1.3 with N-link Glycosylation) (designed binder)
chain: B12 chain with D17E, Q27N
modifications: also: N-linked glycosylation, site not given here
B17: LCB7-1 (designed binder)
chain: DDDIRYLIYMAKLRLEQGNPEEAEKVLEMARFLAERLGMEELLKEVRELLRKIEELR
B18: LCB7-2 (designed binder)
chain: B17 chain with I4V, R14L, M29S, L33A, R36L, M39N
B19: Mucin_LCB1_v1.3 (designed binder)
chain: AKAKAKAKAKAKAKAKAKAKGGDKENILQKIYEIMKTLEQLGHAEASMQVSDLIYEFMKQGDERLLEEAERLLEEVER
B20: LCB4-2 (designed binder)
chain: DREERLKYLEMLLELAVERNDPYLIFDVAIELLRLAEENNDERIYERAKRILEEVE
B21: LCB3_v1.2-GS-LCB1_v1.1 (3GS1) (designed binder)
chain: NDDELHMQMTDLVYEALHFAKDEEIQKHVFQLFEKATKAYKNKDRQKLEKVVEELKELLERLLSGGGGSGGGGSGGGGSGGGGSGGGGSGGGGSGGGGSGGGGSGGGGSGGGGSGGGGSGGGGSGGGGSGGGGSGGGGSDKENILQKIYEIMKTLDQLGHAEASMQVSDLIYEFMKQGDERLLEEAERLLEEVER
B22: AHB1-1 (designed binder)
chain: DEDLEELERLYRKAEEVAKEAKDASRRGDDERAKEQMERAMRLFDQVFELAQELQEKQTDGNRQKATHLDKAVKEAADELYQRVR
B23: AHB1-2 (designed binder)
chain: DEDLEELERLYRKAEEVAKEAEEASRRGDKERAKELLERALHLFDQVFELAQELQEKLTDEKRQKATHLDKAVHEAADELYQRVR
B24: LCB3_v1.2-GS3-LCB3_v1.2 (3GS3) (designed binder)
chain: NDDELHMQMTDLVYEALHFAKDEEIQKHVFQLFEKATKAYKNKDRQKLEKVVEELKELLERLLSGGGGSGGGGSGGGGSGGGGSGGGGSGGGGSGGGGSGGGGSGGGGSGGGGSGGGGSGGGGSGGGGSGGGGSGGGGSNDDELHMQMTDLVYEALHFAKDEEIQKHVFQLFEKATKAYKNKDRQKLEKVVEELKELLERLLS
B25: LCB3-2 (designed binder)
chain: NDDELLMLVTDLVAEALLFAKDEEIKKRVFTLFELADKAYKNNDRDTLSKVVSELKELLERLQ
B26: LCB4-1 (designed binder)
chain: QREKRLKQLEMLLEYAIERNDPYLMFDVAVEMLRLAEENNDERIIERAKRILEEYE
B27: AHB2-1 (designed binder)
chain: ELEERVMHLLDQVSELAHELLHKLTGEELQRATHFDKWANEAILELIKSDDEREIREIEEEARRILEHLEELARK
B28: LCB5-1 (designed binder)
chain: SLEELKEQVKELKKELSPEMRRLIEEALRFLEEGNPAMAMMVLSDLVYQLGDPRVIDLYMLVTKT
B29: LCB1-36GS-LCB1 (designed binder)
chain: DKEWILQKIYEIMRLLDELGHAEASMRVSDLIYEFMKKGDERLLEEAERLLEEVERGGGSGGGSGGSGGSGGGSGGGSGSGGSGGGGSGGGSDKEWILQKIYEIMRLLDELGHAEASMRVSDLIYEFMKKGDERLLEEAERLLEEVER
B30: LCB3_v1.2-PRO-LCB3_v1.2 (3PRO3) (designed binder)
chain: NDDELHMQMTDLVYEALHFAKDEEIQKHVFQLFEKATKAYKNKDRQKLEKVVEELKELLERLLSAGSGGSGGSGGSPVPSTPPTPSPSTPPTPSPSPVPSTPPTPSPSTPPTPSPSPVPSTPPTPSPSTPPTPSPSASGNDDELHMQMTDLVYEALHFAKDEEIQKHVFQLFEKATKAYKNKDRQKLEKVVEELKELLERLLS
B31: AHB2-2 (designed binder)
chain: ELEEQVMHVLDQVSELAHELLHKLTGEELERAAYFNWWATEMMLELIKSDDEREIREIEEEARRILEHLEELARK
B32: LCB1_v1.1-PRO-LCB1_v1.1 (1PRO1) (designed binder)
chain: DKENILQKIYEIMKTLDQLGHAEASMQVSDLIYEFMKQGDERLLEEAERLLEEVERAGSGGSGGSGGSPVPSTPPTPSPSTPPTPSPSPVPSTPPTPSPSTPPTPSPSPVPSTPPTPSPSTPPTPSPSASGDKENILQKIYEIMKTLDQLGHAEASMQVSDLIYEFMKQGDERLLEEAERLLEEVER
B33: LCB5-2 (designed binder)
chain: SLEEVKEILKELKKELSPEDRRLIEEALRLLEEGNPAMASMVLSDLVFLLGDPRVIELLMLVTKT
B34: LCB1_v1.1-GS-LCB3_v1.2 (1GS3) (designed binder)
chain: DKENILQKIYEIMKTLDQLGHAEASMQVSDLIYEFMKQGDERLLEEAERLLEEVERGGGGSGGGGSGGGGSGGGGSGGGGSGGGGSGGGGSGGGGSGGGGSGGGGSGGGGSGGGGSGGGGSGGGGSGGGGSNDDELHMQMTDLVYEALHFAKDEEIQKHVFQLFEKATKAYKNKDRQKLEKVVEELKELLERLLS
B35: Mucin_LCB1_v1.1_Cys (designed binder)
chain: AKAKAKAKAKAKAKAKAKAKGGDKENILQKIYEIMKTLDQLGHAEASMQVSDLIYEFMKQGDERLLEEAERLLEEVERC
B36: LCB1-24GS-LCB1 (designed binder)
chain: DKEWILQKIYEIMRLLDELGHAEASMRVSDLIYEFMKKGDERLLEEAERLLEEVERGGGSGGGSSGGSGGSSGGGSGGGSDKEWILQKIYEIMRLLDELGHAEASMRVSDLIYEFMKKGDERLLEEAERLLEEVER
B37: LCB1_v1.1-GSLCB1_v1.1 (1GS1) (designed binder)
chain: DKENILQKIYEIMKTLDQLGHAEASMQVSDLIYEFMKQGDERLLEEAERLLEEVERGGGGSGGGGSGGGGSGGGGSGGGGSGGGGSGGGGSGGGGSGGGGSGGGGSGGGGSGGGGSGGGGSGGGGSGGGGSDKENILQKIYEIMKTLDQLGHAEASMQVSDLIYEFMKQGDERLLEEAERLLEEVER
B38: LCB1_v1.1_Cys (designed binder)
chain: DKENILQKIYEIMKTLDQLGHAEASMQVSDLIYEFMKQGDERLLEEAERLLEEVERC

These binders were tested against SARS-COV-2 Spike glycoprotein receptor binding domain (RBD) (SARS-CoV-2, UniProt P0DTC2 319-541) (assay: not given).

**Q.** For B1, which Kd is on record?
**A.** 0.2 nM

**Q.** For B2, which Kd is on record?
**A.** 0.2 nM

**Q.** For B3, which Kd is on record?
**A.** 0.2 nM

**Q.** For B4, which Kd is on record?
**A.** 0.2 nM

**Q.** For B5, which Kd is on record?
**A.** 0.2 nM

**Q.** For B6, which Kd is on record?
**A.** 0.2 nM

**Q.** How did the Kd turn out when B7 was run?
**A.** 0.2 nM

**Q.** For B8, which Kd is on record?
**A.** 0.2 nM

**Q.** B9 was tested. Which Kd did it give?
**A.** 0.2 nM

**Q.** For B10, which Kd is on record?
**A.** 0.2 nM

**Q.** With B11 as the binder, how does the Kd read?
**A.** 0.2 nM

**Q.** B12 was tested. Which Kd did it give?
**A.** 0.2 nM

**Q.** Which Kd does the source give for B13 here?
**A.** 0.2 nM

**Q.** B14 was tested. Which Kd did it give?
**A.** 0.2 nM

**Q.** With B15 as the binder, how does the Kd read?
**A.** 0.2 nM

**Q.** For B16, which Kd is on record?
**A.** 0.2 nM

**Q.** With B17 as the binder, how does the Kd read?
**A.** 0.2 nM

**Q.** How did the Kd turn out when B18 was run?
**A.** 0.2 nM

**Q.** For B19, which Kd is on record?
**A.** 0.2 nM

**Q.** Which Kd does the source give for B20 here?
**A.** 0.2 nM

**Q.** With B21 as the binder, how does the Kd read?
**A.** 0.2 nM

**Q.** How did the Kd turn out when B22 was run?
**A.** 0.2 nM

**Q.** With B23 as the binder, how does the Kd read?
**A.** 0.2 nM

**Q.** With B24 as the binder, how does the Kd read?
**A.** 0.2 nM

**Q.** B25 was tested. Which Kd did it give?
**A.** 0.2 nM

**Q.** With B26 as the binder, how does the Kd read?
**A.** 0.2 nM

**Q.** B27 was tested. Which Kd did it give?
**A.** 0.2 nM

**Q.** With B28 as the binder, how does the Kd read?
**A.** 0.2 nM

**Q.** Which Kd does the source give for B29 here?
**A.** 0.2 nM

**Q.** Which Kd does the source give for B30 here?
**A.** 0.2 nM

**Q.** Which Kd does the source give for B31 here?
**A.** 0.2 nM

**Q.** Which Kd does the source give for B32 here?
**A.** 0.2 nM

**Q.** How did the Kd turn out when B33 was run?
**A.** 0.2 nM

**Q.** B34 was tested. Which Kd did it give?
**A.** 0.2 nM

**Q.** For B35, which Kd is on record?
**A.** 0.2 nM

**Q.** B36 was tested. Which Kd did it give?
**A.** 0.2 nM

**Q.** B37 was tested. Which Kd did it give?
**A.** 0.2 nM

**Q.** For B38, which Kd is on record?
**A.** 0.2 nM

What follows are binders tested against SARS-COV-2 Spike glycoprotein (SARS-CoV-2, UniProt P0DTC2 14-1208) (assay: estimated Kd for Spike (avidity), Table 10).

**Q.** How did the Kd turn out when B1 was run?
**A.** 0.1 nM

**Q.** For B2, which Kd is on record?
**A.** 0.1 nM

**Q.** With B11 as the binder, how does the Kd read?
**A.** 0.1 nM

**Q.** With B12 as the binder, how does the Kd read?
**A.** 0.1 nM

**Q.** How did the Kd turn out when B13 was run?
**A.** 0.1 nM

**Q.** For B14, which Kd is on record?
**A.** 0.1 nM

**Q.** B15 was tested. Which Kd did it give?
**A.** 0.1 nM

**Q.** With B16 as the binder, how does the Kd read?
**A.** 0.1 nM

**Q.** With B17 as the binder, how does the Kd read?
**A.** 0.1 nM

**Q.** For B18, which Kd is on record?
**A.** 0.1 nM

**Q.** How did the Kd turn out when B20 was run?
**A.** 0.1 nM

**Q.** B21 was tested. Which Kd did it give?
**A.** 0.1 nM

**Q.** For B24, which Kd is on record?
**A.** 0.1 nM

**Q.** B26 was tested. Which Kd did it give?
**A.** 0.1 nM

**Q.** With B30 as the binder, how does the Kd read?
**A.** 0.1 nM

**Q.** Which Kd does the source give for B31 here?
**A.** 0.1 nM

**Q.** With B32 as the binder, how does the Kd read?
**A.** 0.1 nM

**Q.** For B34, which Kd is on record?
**A.** 0.1 nM

**Q.** With B35 as the binder, how does the Kd read?
**A.** 0.1 nM

**Q.** Which Kd does the source give for B37 here?
**A.** 0.1 nM

**Q.** How did the Kd turn out when B38 was run?
**A.** 0.1 nM
